In the assay the target is IL-2 receptor (human). The assay is described as follows: cell-based or functional assay.

In turn, wild type recombinant IL-2 (ligand) returned an EC50 of pSTAT5 increase on CD56brightCD16- NK cells (intracellular flow cytometry, human PBMCs) of 60 pM.
